{"source": "the supplement of paper PMC7877785", "experiment": "self-splicing fitness, log relative to wild type (ln ratio); higher = more splicing; Tetrahymena group I intron in knt gene, E. coli kanamycin selection, DiMSum; sequences stand for … in CUCUCU…GGAGGGAAAAGUUAUCAGGCAUGCACCUGGUAGCUAGUCUUUAAACCAAUAGAUUGCAUCGGUUUAAAAGGCAAGACCGUCAAAUUGCGGGAAAGGGGUCAACAGCCGUUCAGUACCAAGUCUCAGGGGAAACUUUGAGAUGGCCUUGCAAAGGGUAUGGUAAUAAGCUGACGGACAUGGUCCUAACCACGCAGCCAAGUCCUAAGUCAACAGAUCUUCUGUUGAUAUGGAUGCAGUUCACAGACUAAAUGUCGGUCGGGGAAGAUGUAUUCUUCUCAUAAGAUAUAGUCGGACCUCUCCUUAAUGGGAGCUAGCGGAUGAAGUGAUGCAACACUGGAGCCGCUGGGAACUAAUUUGUAUGCGAAAGUAUAUUGAUUAGUUUUGGAGUACUCGUGGUCG", "in_short": "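Colonies from six replicate transformations of E. coli BL21(DE3) were pooled and amplicon-sequenced on an Illumina HiSeq 2500. The library placed an intron with all eight P1ex-region nucleotides randomised inside the knt kanamycin-resistance gene on pET-22b(+), and cells grew overnight at 37°C or 30°C on LB agar with or without 25 μg/mL kanamycin (plus 100 μg/mL carbenicillin, 50 μM IPTG, 0.2% rhamnose). Fitness is the DiMSum error-weighted combination of wild-type-normalised replicate fold changes, kanamycin versus none.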", "note": "± gives the uncertainty stated by the source."}
{"sequence": "CGUGAGCAAUAUUACGGUGA", "values": [{"measurement": "self-splicing fitness (ln)", "setting": "30 °C", "value": "-2.84 ± 0.31"}, {"measurement": "self-splicing fitness (ln)", "setting": "37 °C", "value": "-2.04 ± 0.38"}]}
{"sequence": "GAGGAGCAAUAUUACGGGAA", "values": [{"measurement": "self-splicing fitness (ln)", "setting": "30 °C", "value": "-2.81 ± 0.26"}, {"measurement": "self-splicing fitness (ln)", "setting": "37 °C", "value": "-1.84 ± 0.46"}]}
{"sequence": "UCGAAGCAAUAUUACGUGAG", "values": [{"measurement": "self-splicing fitness (ln)", "setting": "30 °C", "value": "-0.469 ± 0.053"}, {"measurement": "self-splicing fitness (ln)", "setting": "37 °C", "value": "-0.72 ± 0.088"}]}
{"sequence": "CAUUAGCAAUAUUACGGGGC", "values": [{"measurement": "self-splicing fitness (ln)", "setting": "30 °C", "value": "-3.44 ± 0.23"}, {"measurement": "self-splicing fitness (ln)", "setting": "37 °C", "value": "-1.95 ± 0.23"}]}
{"sequence": "AAAUAGCAAUAUUACGGCUC", "values": [{"measurement": "self-splicing fitness (ln)", "setting": "30 °C", "value": "-0.691 ± 0.14"}, {"measurement": "self-splicing fitness (ln)", "setting": "37 °C", "value": "0.393 ± 0.18"}]}
{"sequence": "CACGAGCAAUAUUACGCAAC", "values": [{"measurement": "self-splicing fitness (ln)", "setting": "30 °C", "value": "-1.88 ± 0.44"}, {"measurement": "self-splicing fitness (ln)", "setting": "37 °C", "value": "-2.56 ± 0.36"}]}
{"sequence": "AUACAGCAAUAUUACGCGAA", "values": [{"measurement": "self-splicing fitness (ln)", "setting": "30 °C", "value": "-1.42 ± 0.12"}, {"measurement": "self-splicing fitness (ln)", "setting": "37 °C", "value": "-0.301 ± 0.12"}]}
{"sequence": "GCUGAGCAAUAUUACGGUCG", "values": [{"measurement": "self-splicing fitness (ln)", "setting": "30 °C", "value": "-2.59 ± 0.17"}, {"measurement": "self-splicing fitness (ln)", "setting": "37 °C", "value": "-2.24 ± 0.22"}]}
{"sequence": "UCUAAGCAAUAUUACGAGAC", "values": [{"measurement": "self-splicing fitness (ln)", "setting": "30 °C", "value": "-1.53 ± 0.12"}, {"measurement": "self-splicing fitness (ln)", "setting": "37 °C", "value": "-2.52 ± 0.2"}]}
{"sequence": "CACGAGCAAUAUUACGUCGG", "values": [{"measurement": "self-splicing fitness (ln)", "setting": "30 °C", "value": "-2.27 ± 0.11"}, {"measurement": "self-splicing fitness (ln)", "setting": "37 °C", "value": "-2.16 ± 0.17"}]}
{"sequence": "GUAAAGCAAUAUUACGUAUG", "values": [{"measurement": "self-splicing fitness (ln)", "setting": "30 °C", "value": "-4.04 ± 0.25"}, {"measurement": "self-splicing fitness (ln)", "setting": "37 °C", "value": "-0.559 ± 0.12"}]}
{"sequence": "CCGCAGCAAUAUUACGUAAG", "values": [{"measurement": "self-splicing fitness (ln)", "setting": "30 °C", "value": "0.385 ± 0.056"}, {"measurement": "self-splicing fitness (ln)", "setting": "37 °C", "value": "-0.112 ± 0.062"}]}
{"sequence": "AUCGAGCAAUAUUACGGGUA", "values": [{"measurement": "self-splicing fitness (ln)", "setting": "30 °C", "value": "-2.85 ± 0.16"}, {"measurement": "self-splicing fitness (ln)", "setting": "37 °C", "value": "-2.15 ± 0.14"}]}
{"sequence": "CUCGAGCAAUAUUACGCCAU", "values": [{"measurement": "self-splicing fitness (ln)", "setting": "30 °C", "value": "-2.93 ± 0.48"}, {"measurement": "self-splicing fitness (ln)", "setting": "37 °C", "value": "-1.94 ± 0.35"}]}
{"sequence": "UCGCAGCAAUAUUACGUAAA", "values": [{"measurement": "self-splicing fitness (ln)", "setting": "30 °C", "value": "-1.69 ± 0.094"}, {"measurement": "self-splicing fitness (ln)", "setting": "37 °C", "value": "-1.12 ± 0.12"}]}
{"sequence": "UUUUAGCAAUAUUACGACAU", "values": [{"measurement": "self-splicing fitness (ln)", "setting": "30 °C", "value": "-2.164 ± 0.021"}, {"measurement": "self-splicing fitness (ln)", "setting": "37 °C", "value": "-1.09 ± 0.036"}]}
{"sequence": "AUCAAGCAAUAUUACGACGA", "values": [{"measurement": "self-splicing fitness (ln)", "setting": "30 °C", "value": "-1.26 ± 0.095"}, {"measurement": "self-splicing fitness (ln)", "setting": "37 °C", "value": "-0.128 ± 0.11"}]}
{"sequence": "CUUCAGCAAUAUUACGUGUU", "values": [{"measurement": "self-splicing fitness (ln)", "setting": "30 °C", "value": "-3.34 ± 0.19"}, {"measurement": "self-splicing fitness (ln)", "setting": "37 °C", "value": "-2.72 ± 0.24"}]}
{"sequence": "UACAAGCAAUAUUACGAAAG", "values": [{"measurement": "self-splicing fitness (ln)", "setting": "30 °C", "value": "-2.61 ± 0.11"}, {"measurement": "self-splicing fitness (ln)", "setting": "37 °C", "value": "-2.37 ± 0.16"}]}
{"sequence": "UGUCAGCAAUAUUACGCCUG", "values": [{"measurement": "self-splicing fitness (ln)", "setting": "30 °C", "value": "0.351 ± 0.072"}, {"measurement": "self-splicing fitness (ln)", "setting": "37 °C", "value": "0.582 ± 0.11"}]}
{"sequence": "CAGUAGCAAUAUUACGUGGG", "values": [{"measurement": "self-splicing fitness (ln)", "setting": "30 °C", "value": "-3.85 ± 0.29"}, {"measurement": "self-splicing fitness (ln)", "setting": "37 °C", "value": "-1.92 ± 0.21"}]}
{"sequence": "AUAGAGCAAUAUUACGGAAG", "values": [{"measurement": "self-splicing fitness (ln)", "setting": "30 °C", "value": "-2.48 ± 0.18"}, {"measurement": "self-splicing fitness (ln)", "setting": "37 °C", "value": "-1.45 ± 0.21"}]}
{"sequence": "UCGCAGCAAUAUUACGCCUC", "values": [{"measurement": "self-splicing fitness (ln)", "setting": "37 °C", "value": "-2.36 ± 0.39"}]}
{"sequence": "UAACAGCAAUAUUACGAUUG", "values": [{"measurement": "self-splicing fitness (ln)", "setting": "30 °C", "value": "-1.57 ± 0.056"}, {"measurement": "self-splicing fitness (ln)", "setting": "37 °C", "value": "-0.741 ± 0.082"}]}
{"sequence": "AAAAAGCAAUAUUACGGCGG", "values": [{"measurement": "self-splicing fitness (ln)", "setting": "30 °C", "value": "-1.18 ± 0.059"}, {"measurement": "self-splicing fitness (ln)", "setting": "37 °C", "value": "-0.131 ± 0.077"}]}
{"sequence": "AUGAAGCAAUAUUACGUCGG", "values": [{"measurement": "self-splicing fitness (ln)", "setting": "30 °C", "value": "-0.496 ± 0.1"}, {"measurement": "self-splicing fitness (ln)", "setting": "37 °C", "value": "-0.498 ± 0.11"}]}
{"sequence": "UUCCAGCAAUAUUACGGCCC", "values": [{"measurement": "self-splicing fitness (ln)", "setting": "30 °C", "value": "-2.34 ± 0.38"}]}
{"sequence": "UCCUAGCAAUAUUACGCGUA", "values": [{"measurement": "self-splicing fitness (ln)", "setting": "30 °C", "value": "-2.95 ± 0.23"}, {"measurement": "self-splicing fitness (ln)", "setting": "37 °C", "value": "-1.53 ± 0.14"}]}
{"sequence": "CGAUAGCAAUAUUACGAUAU", "values": [{"measurement": "self-splicing fitness (ln)", "setting": "30 °C", "value": "-3.53 ± 0.16"}, {"measurement": "self-splicing fitness (ln)", "setting": "37 °C", "value": "-1.47 ± 0.12"}]}
{"sequence": "GUAGAGCAAUAUUACGGUCU", "values": [{"measurement": "self-splicing fitness (ln)", "setting": "30 °C", "value": "-1.46 ± 0.1"}, {"measurement": "self-splicing fitness (ln)", "setting": "37 °C", "value": "-0.783 ± 0.14"}]}
{"sequence": "GAUCAGCAAUAUUACGCUAU", "values": [{"measurement": "self-splicing fitness (ln)", "setting": "30 °C", "value": "-0.967 ± 0.24"}, {"measurement": "self-splicing fitness (ln)", "setting": "37 °C", "value": "-0.471 ± 0.15"}]}
{"sequence": "GGAGAGCAAUAUUACGGGCG", "values": [{"measurement": "self-splicing fitness (ln)", "setting": "30 °C", "value": "-3.79 ± 0.29"}, {"measurement": "self-splicing fitness (ln)", "setting": "37 °C", "value": "-2.37 ± 0.26"}]}
{"sequence": "AAUCAGCAAUAUUACGCGGG", "values": [{"measurement": "self-splicing fitness (ln)", "setting": "30 °C", "value": "-1.33 ± 0.095"}, {"measurement": "self-splicing fitness (ln)", "setting": "37 °C", "value": "-1.42 ± 0.099"}]}
{"sequence": "GAAUAGCAAUAUUACGGUGA", "values": [{"measurement": "self-splicing fitness (ln)", "setting": "30 °C", "value": "-1.69 ± 0.12"}, {"measurement": "self-splicing fitness (ln)", "setting": "37 °C", "value": "-1.36 ± 0.11"}]}
{"sequence": "AAGCAGCAAUAUUACGGCAU", "values": [{"measurement": "self-splicing fitness (ln)", "setting": "30 °C", "value": "-0.221 ± 0.083"}, {"measurement": "self-splicing fitness (ln)", "setting": "37 °C", "value": "0.127 ± 0.1"}]}
{"sequence": "GUGAAGCAAUAUUACGGUCG", "values": [{"measurement": "self-splicing fitness (ln)", "setting": "30 °C", "value": "-0.124 ± 0.063"}, {"measurement": "self-splicing fitness (ln)", "setting": "37 °C", "value": "-0.0595 ± 0.085"}]}
{"sequence": "AGCGAGCAAUAUUACGGGUA", "values": [{"measurement": "self-splicing fitness (ln)", "setting": "30 °C", "value": "-2.6 ± 0.21"}, {"measurement": "self-splicing fitness (ln)", "setting": "37 °C", "value": "-0.993 ± 0.18"}]}
{"sequence": "GGGUAGCAAUAUUACGAGCG", "values": [{"measurement": "self-splicing fitness (ln)", "setting": "30 °C", "value": "-1.3 ± 0.12"}, {"measurement": "self-splicing fitness (ln)", "setting": "37 °C", "value": "-0.426 ± 0.12"}]}
